For this test, the target named is Human CD117 as expressed on cells (Kasumi-1 cells; primary human CD34+ bone marrow cells) (human, UniProt P10721 26-976). The test can be described thus: cell-based or functional assay.
Sequence of Human CD117 as expressed on cells (Kasumi-1 cells; primary human CD34+ bone marrow cells) (P10721 26-976 limits assumed): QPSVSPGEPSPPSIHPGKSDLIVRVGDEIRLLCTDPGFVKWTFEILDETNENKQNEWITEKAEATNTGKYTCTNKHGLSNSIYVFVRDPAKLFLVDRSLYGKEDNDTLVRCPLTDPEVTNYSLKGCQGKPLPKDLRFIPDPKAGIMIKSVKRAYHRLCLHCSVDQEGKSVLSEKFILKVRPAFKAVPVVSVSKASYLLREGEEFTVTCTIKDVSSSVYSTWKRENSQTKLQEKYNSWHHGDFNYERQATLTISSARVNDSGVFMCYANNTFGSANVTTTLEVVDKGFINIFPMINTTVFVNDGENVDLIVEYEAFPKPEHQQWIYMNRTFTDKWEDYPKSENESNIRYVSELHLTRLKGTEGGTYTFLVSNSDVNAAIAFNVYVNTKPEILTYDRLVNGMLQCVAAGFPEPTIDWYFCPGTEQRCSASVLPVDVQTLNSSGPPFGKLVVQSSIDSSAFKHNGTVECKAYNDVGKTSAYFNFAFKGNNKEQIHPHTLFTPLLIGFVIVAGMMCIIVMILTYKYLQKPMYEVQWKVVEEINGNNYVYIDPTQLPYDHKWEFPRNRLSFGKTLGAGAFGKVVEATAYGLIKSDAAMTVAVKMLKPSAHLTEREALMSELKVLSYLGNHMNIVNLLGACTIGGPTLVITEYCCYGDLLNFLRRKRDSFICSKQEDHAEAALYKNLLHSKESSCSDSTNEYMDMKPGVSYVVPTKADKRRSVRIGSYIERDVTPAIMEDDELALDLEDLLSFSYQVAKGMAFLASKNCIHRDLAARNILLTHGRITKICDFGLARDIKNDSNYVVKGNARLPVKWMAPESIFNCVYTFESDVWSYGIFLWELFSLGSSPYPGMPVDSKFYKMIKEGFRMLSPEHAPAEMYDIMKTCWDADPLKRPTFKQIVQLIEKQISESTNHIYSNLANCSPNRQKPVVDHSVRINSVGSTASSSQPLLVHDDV

B1: Antibody 58 (Ab58) (antibody, V domains shown)
VH: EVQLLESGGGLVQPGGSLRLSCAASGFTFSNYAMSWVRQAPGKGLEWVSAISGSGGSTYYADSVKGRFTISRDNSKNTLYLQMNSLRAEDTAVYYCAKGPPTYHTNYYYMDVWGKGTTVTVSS
VL: DIQMTQSPSSVSASVGDRVTITCRASQGISSWLAWYQQKPGKAPKLLIYAASSLQSGVPSRFSGSGSGTDFTLTISSLQPEDFATYYCQQTNSFPYTFGGGTKVEIKR
B1: the “AUC Kasumi-1 Killing (AUC hIgG1 - AUC MAC ID#)” value (shortened to “AUC Kasumi-1 Killing”) was 97400.

B2: Antibody 61 (Ab61) (antibody, V domains shown)
VH: EVQLLESGGGLVQPGGSLRLSCAASGFTFSSYVMIWVRQAPGKGLEWVSSISGDSVTTYYADSVKGRFTISRDNSKNTLYLQMNSLRAEDTAVYYCAKGPPTYHTNYYYMDVWGKGTTVTVSS
VL: DIQMTQSPSSVSASVGDRVTITCRASQGISSWLAWYQQKPGKAPKLLIYAASSLQSGVPSRFSGSGSGTDFTLTISSLQPEDFATYYCQQTNSFPYTFGGGTKVEIKR
With B2, the “AUC Kasumi-1 Killing” value amounted to 78600.

B3: CK6 (antibody, V domains shown)
VH: QVQLVQSGAAVKKPGESLKISCKGSGYRFTSYWIGWVRQMPGKGLEWMGIIYPGDSDTRYSPSFQGQVTISAGKSISTAYLQWSSLKASDTAMYYCARHGRGYNGYEGAFDIWGQGTMVTVSS
VL: AIQLTQSPSSLSASVGDRVTITCRASQGISSALAWYQQKPGKAPKLLIYDASSLESGVPSRFSGSGSGTDFTLTISSLQPEDFATYYCQQFNSYPLTFGGGTKVEIK
For the molecule B3, the “AUC Kasumi-1 Killing” value amounted to 132000.

B4: Antibody 56 (Ab56) (antibody, V domains shown)
VH: QVQLVQSGAEVKKPGSSVKVSCKASGGTFSLYAISWVRQAPGQGLEWMGGIIPAFGTANYAQKFQGRVTITADESTSTAYMELSSLRSEDTAVYYCARGGLDTDEFDLWGRGTLVTVSS
VL: DIQMTQSPSSLSASVGDRVTITCRASQSINSYLNWYQQKPGKAPKLLIYAASSLQSGVPSRFSGSGSGTDFTLTISSLQPEDFATYYCQQGVSDITFGGGTKVEIKR
With B4, the “AUC Kasumi-1 Killing” value came out at 193000.

B5: Antibody 55 (Ab55) (antibody, V domains shown)
VH: QVQLVQSGAEVKKPGSSVKVSCKASGGTFRIYAISWVRQAPGQGLEWMGGIIPDFGVANYAQKFQGRVTITADESTSTAYMELSSLRSEDTAVYYCARGGLDTDEFDLWGRGTLVTVSS
VL: DIQMTQSPSSLSASVGDRVTITCRASQSINSYLNWYQQKPGKAPKLLIYAASSLQSGVPSRFSGSGSGTDFTLTISSLQPEDFATYYCQQGVSDITFGGGTKVEIKR
Turning to B5, the “AUC Kasumi-1 Killing” value was found to be 226000.

B6: Antibody 57 (Ab57) (antibody, V domains shown)
VH: QVQLVQSGAEVKKPGSSVKVSCKASGGTFSLYAISWVRQAPGQGLEWMGGIIPHFGLANYAQKFQGRVTITADESTSTAYMELSSLRSEDTAVYYCARGGLDTDEFDLWGRGTLVTVSS
VL: DIQMTQSPSSLSASVGDRVTITCRASQSINSYLNWYQQKPGKAPKLLIYAASSLQSGVPSRFSGSGSGTDFTLTISSLQPEDFATYYCQQGVSDITFGGGTKVEIKR
Consider B6, for which the “AUC Kasumi-1 Killing” value was found to be 157000.

B7: Antibody 54 (Ab54) (antibody, V domains shown)
VH: QVQLVQSGAEVKKPGSSVKVSCKASGGTFSSYAISWVRQAPGQGLEWMGGIIPIFGTANYAQKFQGRVTITADESTSTAYMELSSLRSEDTAVYYCARGGLDTDEFDLWGRGTLVTVSS
VL: DIQMTQSPSSLSASVGDRVTITCRASQSINSYLNWYQQKPGKAPKLLIYAASSLQSGVPSRFSGSGSGTDFTLTISSLQPEDFATYYCQQGVSDITFGGGTKVEIKR
B7: the “AUC Kasumi-1 Killing” value came to 155000.

B8: Antibody 67 (Ab67) (antibody, V domains shown)
VH: EVQLVESGGGLVQPGGSLRLSCAASGFTFSDADMDWVRQAPGKGLEWVGRTRNKAGSYTTEYAASVKGRFTISRDDSKNSLYLQMNSLKTEDTAVYYCAREPKYWIDFDLWGRGTLVTVSS
VL: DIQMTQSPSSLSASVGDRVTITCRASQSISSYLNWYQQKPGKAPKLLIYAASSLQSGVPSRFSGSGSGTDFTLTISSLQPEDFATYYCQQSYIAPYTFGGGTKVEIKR
Regarding B8, the “AUC Kasumi-1 Killing” value is 156000.

B9: Antibody 66 (Ab66) (antibody, V domains shown)
VH: EVQLVESGGGLVQPGGSLRLSCAASGFTFSDHYMDWVRQAPGKGLEWVGRTRNKASSYTTEYAASVKGRFTISRDDSKNSLYLQMNSLKTEDTAVYYCAREPKYWIDFDLWGRGTLVTVSS
VL: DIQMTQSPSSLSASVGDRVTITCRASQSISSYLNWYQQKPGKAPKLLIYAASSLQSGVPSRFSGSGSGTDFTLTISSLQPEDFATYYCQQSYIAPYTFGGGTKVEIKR
On to B9, for which the “AUC Kasumi-1 Killing” value was 135000.

B10: Antibody 69 (Ab69) (antibody, V domains shown)
VH: EVQLVESGGGLVQPGGSLRLSCAASGFTFVDHDMDWVRQAPGKGLEWVGRTRNKLGSYTTEYAASVKGRFTISRDDSKNSLYLQMNSLKTEDTAVYYCAREPKYWIDFDLWGRGTLVTVSS
VL: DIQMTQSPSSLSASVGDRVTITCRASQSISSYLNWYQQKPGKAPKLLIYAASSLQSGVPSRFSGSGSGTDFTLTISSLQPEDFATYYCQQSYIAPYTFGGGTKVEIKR
Turning to B10, the “AUC Kasumi-1 Killing” value amounted to 40000.

B11: Antibody 68 (Ab68) (antibody, V domains shown)
VH: EVQLVESGGGLVQPGRSLRLSCTASGFTFSDHDMNWVRQAPGKGLEWVGRTRNAAGSYTTEYAASVKGRFTISRDDSKNSLYLQMNSLKTEDTAVYYCAREPKYWIDFDLWGRGTLVTVSS
VL: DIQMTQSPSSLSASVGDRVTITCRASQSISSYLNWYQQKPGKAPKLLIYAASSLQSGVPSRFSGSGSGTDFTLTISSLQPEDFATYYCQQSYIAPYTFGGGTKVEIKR
Regarding B11, the “AUC Kasumi-1 Killing” value amounted to 14400.
